Source: patent publication US20160082114A1 (published 2016)
Read-outs that look alike come from different tables or passages of the source.

Tests used:
[1] = target: T1, folate receptor 1 (FOLR1) (human, UniProt P15328 25-234); test: flow cytometry, T47D cells
[2] = target: T1, folate receptor 1 (FOLR1); test: flow cytometry, T47D cells; remark: listed apart in the source

T1 sequence (P15328 25-234): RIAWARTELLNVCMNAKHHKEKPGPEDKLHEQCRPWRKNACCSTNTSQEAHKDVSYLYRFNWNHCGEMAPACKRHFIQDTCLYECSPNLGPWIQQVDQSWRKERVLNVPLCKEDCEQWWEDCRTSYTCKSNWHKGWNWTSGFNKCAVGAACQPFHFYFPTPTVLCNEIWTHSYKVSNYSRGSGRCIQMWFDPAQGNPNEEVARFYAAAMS

EC50 [1] [pM] | EC50 [2] [pM] | Binder
379 |  | huMOV19-14 conjugate (antibody, V domains shown) VH: QVQLVQSGAEVVKPGASVKISCKASGYTFTGYFMNWVKQSPGQSLEWIGRIHPYDGDTFYNQKFQGKATLTVDKSSNTAHMELLSLTSEDFAVYYCTRYDGSRAMDYWGQGTTVTVSS VL: DIVLTQSPLSLAVSLGQPAIISCKASQSVSFAGTSLMHWYHQKPGQQPRLLIYRASNLEAGVPDRFSGSGSKTDFTLTISPVEAEDAATYYCQQSREYPYTFGGGTKLEIKR
 | 371 | huMOV19-90 conjugate (antibody, V domains shown) VH: QVQLVQSGAEVVKPGASVKISCKASGYTFTGYFMNWVKQSPGQSLEWIGRIHPYDGDTFYNQKFQGKATLTVDKSSNTAHMELLSLTSEDFAVYYCTRYDGSRAMDYWGQGTTVTVSS VL: DIVLTQSPLSLAVSLGQPAIISCKASQSVSFAGTSLMHWYHQKPGQQPRLLIYRASNLEAGVPDRFSGSGSKTDFTLTISPVEAEDAATYYCQQSREYPYTFGGGTKLEIKR
